Assay results from article PMC6838084, “Direct, gabapentin-insensitive interaction of a soluble form of the calcium channel subunit α2δ-1 with thrombospondin-4” (Scientific Reports, 2019).

B1: thrombospondin-4 (TSP-4), recombinant full-length rat, N-terminal double strep II-tag (natural protein)
chain: not shown
notes: thrombospondin-4, rat, called full-length; the PCR product lacks the natural signal peptide and was cloned in frame with the BM-40 signal peptide; A thrombin cleavage site lies between the tag and the protein; Pentamer held by interchain disulphide bonds; glycosylated; also called full-length pentameric TSP-4; source: HEK293-EBNA, secreted, purified from culture supernatant (streptactin-sepharose)
B2: cartilage oligomeric matrix protein (COMP, TSP-5), recombinant full-length rat, N-terminal double strep II-tag (natural protein)
chain: not shown
notes: cartilage oligomeric matrix protein, rat, called full-length; the PCR product lacks the natural signal peptide and was cloned in frame with the BM-40 signal peptide; A thrombin cleavage site lies between the tag and the protein; Pentamer held by interchain disulphide bonds; also called TSP-5/COMP; source: HEK293-EBNA, secreted, purified from culture supernatant (streptactin-sepharose)
B3: thrombospondin-2 (TSP-2), recombinant full-length murine, N-terminal double strep II-tag (natural protein)
chain: not shown
notes: thrombospondin-2, mouse, called full-length; the PCR product lacks the natural signal peptide and was cloned in frame with the BM-40 signal peptide; A thrombin cleavage site lies between the tag and the protein; Trimer held by interchain disulphide bonds; heavily glycosylated; source: HEK293-EBNA, secreted, purified from culture supernatant (streptactin-sepharose)

Target: the molecule itself
Assay: SDS-PAGE and immunoblot without and with DTT; purified proteins separated under non-reducing and reducing conditions; composite agarose/polyacrylamide gel for intact TSPs; oligomers held by interchain disulphide bonds

Protein	stoichiometry N
B1	5
B2	5
B3	3
